The assay addresses KcsA potassium channel, L90C, chymotrypsin-truncated (UniProt P0A334). Put plainly: crystal structure.

By stoichiometry N is commonly meant a count of units in the complex or per binding partner. Turning to “KcsA potassium channel, L90C, chymotrypsin-truncated (from UniProt P0A334 1-160) (natural protein)”, the stoichiometry N came out at 4.

For the origin of these results see article PMC4139162.
